# Tests used:
# B16F10 melanoma = B16F10 melanoma tumor growth in mice; format: in vivo; details: B16F10 melanoma in C57b16/J mice; vs control antibody (Hamster IgG); 18R5 45 mg/kg Q2W, 54F28 50 mg/kg Q2W, anti-CTLA-4 (4F10-11) 10 mg/kg 3QW; n=10
# Method: B16F10 melanoma cells were implanted into the rear flanks of C57b16/J mice. When tumors reached a mean tumor volume of ˜100 mm^3 as measured by electronic caliper, mice were grouped and treated with a control antibody (Hamster IgG, 10 mg/kg, 3QW), 18R5 (45 mg/kg, Q2W), anti-CTLA-4 (4F10-11, 10 mg/kg, 3QW), 54F28 (50 mg/kg, Q2W), or a combination of 18R5+ anti-CTLA-4 or 54F28+ anti-CTLA-4. […] Data shown represents the mean ±SEM (n=10).
# B16F10 target cells = assay: T cell cytotoxicity, calcein release from B16F10 target cells; format: in vivo, mouse; details: splenocytes of treated B16F10 tumor-bearing mice, cultured 6 days with mgp100 peptide; effector:target 25:1; vs Hamster IgG; FIG. 2B
# Method: To measure changes in T cell toxicity, the mouse melanoma cell line B16F10 was cultured in DMEM culture medium supplemented with 10% (v/v) fetal bovine serum (FBS), 2 mM L-glutamine, and 100 U/mL penicillin at 37° C. in a humidified atmosphere of 5% CO2. Total splenocytes from were cultured for 6 days in RPMI 1640 medium supplemented with 10% FBS, 2 mM L-glutamine, 100 U/mL penicillin, and 1 μg/mL mgp100 peptide (Anaspec). B16F10 target cells were labeled with 10 μM calcein AM (Life Technologies) for 1 hour at 37° C. and then combined with the splenocytes at an effector:target ratio of 25:1. Following a four-hour incubation at 37° C., cell-free supernatants were harvested and calcein release was quantified on a fluorometer at an excitation of 485 nm and an emission of 535 nm. The percentage of specific cell lysis was determined as: % lysis=100×(ER-SR)/(MR-SR), where ER, SR, and MR represent experimental, spontaneous, and maximum calcein release, respectively. Spontaneous release is the fluorescence emitted by target cells incubated in media alone (i.e., in the absence of effector cells), while maximum release is determined by lysing target cells with an equal volume of 10% SDS. For all groups, p<0.05 vs. Hamster IgG.
# B16F1 melanoma cells = assay: B16F1 melanoma tumor growth with GVAX, anti-CTLA-4 and anti-PD-L1; format: in vivo; details: C57BL6J mice, murine chimera 18R5 added to anti-CTLA-4 (9D9) + anti-PD-L1 (10F.9G2), compared to these antibodies without 18R5, FIGS. 3A-3D
# Method: The effect of the anti-Fzd antibody, OMP-18R5, on melanoma cell line tumor growth was tested animals receiving the combination of anti-CTLA-4 and anti-PD-L1 antibodies. In these experiments, ten thousand B16F1 melanoma cells were injected subcutaneously into C57BL6J mice. On days 4, 7, and 10 post-implantation, “GVAX” tumor vaccine was administered by the injection of 2 million mitomycin C-treated cells of a B16F1 subclone stably transfected with a plasmid encoding m-GM-CSF (with GM-CSF expression confirmed by ELISA), as previously described by Curran and Allison, Cancer Res 69:7747, 2009. Anti-CTLA-4 clone 9D9 (BioXCell; West Lebanon, N.H.) was dosed on days 5, 8, and 12. Anti-PD-L1 clone 10F.9G2 (BioXCell) was dosed on days 5, 8, 12, 14, 19, 22, and 26, and either 1B7.11 isotype or murine chimera 18R5 were administered days 5, 12, 19, and 26 following parental B16F1 cell implantation.
# B16F1 tumors = assay: T-cell tumor infiltration by flow cytometry (FACS); format: in vivo, mice; details: compared to anti-CTLA-4 + anti-PD-L1 without 18R5 (or control antibodies)
# Method: The change is T-cell tumor infiltration was also measured. Here, B16F1 tumors were isolated from control antibody, anti-CTLA-4 and anti-mouse PD-L1 combination; and anti-mouse Fzd7 (18R5)+anti-mouse anti-CTLA-4+ anti-mouse PD-L1 combination antibody-treated mice. Single cell suspensions were acquired from 4-6 independently treated tumors and were stained for tumor infiltrating immune cells using fluorescently-labeled anti-CD45, anti-CD4, and anti-CD8 antibodies. Flow cytometry analysis (FACS) was performed and the relative percentage populations of CD45+/CD4+ and CD45+/CD8+ T cells are shown.
# splenocytes = assay: ELISpot cytokine secretion assay of splenocytes (hgp100 peptide); format: in vivo, mice; details: splenocytes with 1 μg/ml hgp100 peptide, 18R5 added to anti-CTLA-4 + anti-PD-L1 therapy
# Method: Using the ELISpot cytokine secretion assay, secretion of IFN-gamma and IL-2 was measured following 18R5 treatment. In these assays, splenocytes were harvested from a minimum of four mice per group, filtered, and the red blood cells lysed and re-suspended in RPMI+10% FBS+penn/strep at a concentration of 10^6 cells/ml in the presence of 1 μg/ml hgp100 peptide. Cells were plated on pre-coated ELISpot plates, incubated overnight and processed according to manufacturer's instructions (MabTech, Cincinnati, Ohio). Developed plates were read on a BioSys BioReader 6000-F b. The results from this assay are shown in FIG. 4A (IFN-gamma) and FIG. 4B (IL-2). Values shown are total optical density. As shown in these figures, IFN-gamma and IL-2 were increased by addition of 18R5 therapy.
Molecule,anti-tumor growth vs control (B16F10 melanoma),T cell cytotoxicity (specific cell lysis) (B16F10 target cells),tumor growth (B16F1 melanoma cells),CD4+ T cell tumor infiltration (CD45+/CD4+) (B16F1 tumors; FIG. 6A),CD8+ T cell tumor infiltration (CD45+/CD8+) (B16F1 tumors; FIG. 6B),"IFN-gamma secretion (ELISpot, total optical density) (splenocytes; FIG. 4A)","IL-2 secretion (ELISpot, total optical density) (splenocytes; FIG. 4B)"
"54F28: FZD8-Fc soluble receptor, SEQ ID NO:41 (SEQ ID NO:45 with signal sequence)",significant anti-tumor growth,increased,,,,,
"18R5: anti-FZD IgG2 antibody binding FZD1, FZD2, FZD5, FZD7, FZD8; heavy chain SEQ ID NO:11, light chain SEQ ID NO:12 (antibody, Heavy chain amino acid sequence without predicted signal sequence; Light chain amino acid sequence without predicted signal sequence) heavy: EVQLVESGGGLVQPGGSLRLSCAASGFTFSHYTLSWVRQAPGKGLEWVSVISGDGSYTYYADSVKGRFTISSDNSKNTLYLQMNSLRAEDTAVYYCARNFIKYVFANWGQGTLVTVSSASTKGPSVFPLAPCSRSTSESTAALGCLVKDYFPEPVTVSWNSGALTSGVHTFPAVLQSSGLYSLSSVVTVPSSNFGTQTYTCNVDHKPSNTKVDKTVERKCCVECPPCPAPPVAGPSVFLFPPKPKDTLMISRTPEVTCVVVDVSHEDPEVQFNWYVDGVEVHNAKTKPREEQFNSTFRVVSVLTVVHQDWLNGKEYKCKVSNKGLPAPIEKTISKTKGQPREPQVYTLPPSREEMTKNQVSLTCLVKGFYPSDIAVEWESNGQPENNYKTTPPMLDSDGSFFLYSKLTVDKSRWQQGNVFSCSVMHEALHNHYTQKSLSLSPGK light: DIELTQPPSVSVAPGQTARISCSGDNIGSFYVHWYQQKPGQAPVLVIYDKSNRPSGIPERFSGSNSGNTATLTISGTQAEDEADYYCQSYANTLSLVFGGGTKLTVLGQPKAAPSVTLFPPSSEELQANKATLVCLISDFYPGAVTVAWKADSSPVKAGVETTTPSKQSNNKYAASSYLSLTPEQWKSHRSYSCQVTHEGSTVEKTVAPTECS",,increased,decreased,increased,increased,increased,increased

# From patent US20180244783A1, “COMBINATION THERAPY FOR TREATMENT OF DISEASE” (OncoMed Pharmaceuticals, Inc., priority 2015, published 2018)
